Data: patent US20260049134A1 (UNIVERSITY OF FLORIDA RESEARCH FOUNDATION, published 2026)
Changes are numbered by the printed parent chain. Numbers in names are those of the source.

T1: CADM1, endogenous in H929 multiple myeloma cells (human, UniProt Q9BY67 45-442)
T1 construct: Native protein on H929 cells (flow cytometry, siRNA knockdown) and in H929 lysates (IP/MS); RPMI-8226 cells were used for sorting with HW-97; also called IGSF4A
T1 sequence: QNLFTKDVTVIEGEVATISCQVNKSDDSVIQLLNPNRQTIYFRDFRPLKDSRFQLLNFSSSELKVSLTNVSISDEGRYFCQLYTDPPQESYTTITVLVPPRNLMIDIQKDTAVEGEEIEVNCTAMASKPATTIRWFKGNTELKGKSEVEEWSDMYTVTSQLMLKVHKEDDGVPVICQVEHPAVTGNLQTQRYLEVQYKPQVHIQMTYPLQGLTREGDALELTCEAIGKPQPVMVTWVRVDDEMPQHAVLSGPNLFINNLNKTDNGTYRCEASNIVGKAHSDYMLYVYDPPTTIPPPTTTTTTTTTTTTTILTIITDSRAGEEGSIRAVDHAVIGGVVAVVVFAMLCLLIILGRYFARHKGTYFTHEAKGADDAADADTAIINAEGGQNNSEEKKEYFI

T2: CADM1 on RPMI-8226 cells (human, UniProt Q9BY67)
T2 sequence (single chain, looked up): T1 sequence

B1: TH9-0022 (antibody, human IgG1, kappa, L234A L235A, V domains shown)
VH: QSLEESGGRLVTPGTPLTLTCTVSGFSLSSYAMNWVRQAPGKGLEWIGIINSYGSTYYASWAKGRFTISKTSTTVDLKITSPTTEDTATYFCARVTYDSYGYGYAPYGMDLWGPGTLVTVSS
VL: LVMTQTPSSTSNAVGGTVTIKCQASQSIGNVLAWYQQKPGQPPKLLIYAASTLASGVPSRVGGSRSGTEYTLTISGVQREDAATYYCLGSDSDSDIAFGGGTELEILR
notes: also called TH9-022; negative control
B2: HW-42 chimeric rabbit-human IgG1 LA/LA/PG (antibody, V domains shown)
VH: QSVKESEGGLFKPADTLTLTCTVSGFSLSSNEISWVRQAPGEGLEYIGIIDTGGRAYYAVWARSRSTITRNTNLNTVTLKMTSLTAADTATYFCARGGVDTEWYAFSSWGPGTLVTVPS
VL: SFVLTQPASVQVNLGQTVSLTCTADTLSRRYASWYQQKPGQAPVLLIFRDTSRPSGVPDRFSGSSSGDTATLTISGAQAGDEADYYCATSDGSGSNYQYVFGGGTQLTVTG
notes: Fc-silenced (L234A/L235A/P329G) IgG1, lambda; Alexa Fluor 647-labeled in single-step flow cytometry; Cluster C-1
B3: HW-70 chimeric rabbit-human IgG1 LA/LA/PG (antibody, V domains shown)
VH: QSLEESGGRLVTPGTPLTLTCTVSGFSLSSNAMSWVRQAPGKGLEWIGTIDGYGYTYYASWAKGRFTVSKTSTTVDLKITSPTTEDTATYFCAREIYLGSNFWGPGTLVTISS
VL: B2 VL with F48Y, D68N, S90A, N96S, Y99F
notes: as for B2
B4: HW-25 chimeric rabbit-human IgG1 LA/LA/PG (antibody, V domains shown)
VH: QSLEESGGRLVTPGTPLTLTCTVSGFSLSSYAMGWVRQAPGKGLEWIGIIDSRGSTYYATWAKGRFTISKTSTTVDLKITSPTTEDTATYFCAREDSYYYDSFNLWGPGTLVTVSS
VL: B2 VL with F48Y, D68N, N96S, Y99C
notes: as for B2
B5: HW-1 chimeric rabbit-human IgG1 LA/LA/PG (antibody, V domains shown)
VH: QSLEESGGGLFKPTDTLTLTCTASGFSLGSSYAISWVRQAPGKELEWIGTIDSGRAYYARWAKSRSTITRNTNENTVTLKMTSLTAADTATYFCARDLIPTYSQDIWGPGTLVTISS
VL: B2 VL with F48Y, D68N, S95N, N96S, G111S
notes: Fc-silenced (L234A/L235A/P329G) IgG1, lambda; Alexa Fluor 647-labeled in single-step flow cytometry; Prototype of cluster C-1
B6: HW-17 chimeric rabbit-human IgG1 LA/LA/PG (antibody, V domains shown)
VH: QSLGESRGRLVTPDETLTLTCTVSGIDLSSNAMSWVRQAPGEGLEWIGTINTGGRAYYASWAKGRFTISRTSTTVDLKMTSLTTEDTATYFCARERYSDGRAYDIWGPGTLVTISS
VL: B2 VL with F48Y, R49T, T51S, S52N, V57I, D68N, S90D, N96I
notes: as for B2
B7: HW-97 chimeric rabbit-human IgG1 LA/LA/PG (antibody, V domains shown)
VH: QKQLVESGGRLVTPGTPLTLTCTVTGIDLSSHGMSWVRQAPGKGLEWIGVIYPSGSTWYASWARGRFTISKTSTTVDLKMTSLTTEDTATHFCARGDVGGADNNIWGPGTLVTVSS
VL: B2 VL with N13D, D25E, R30S, F48Y, D68N, N96S
notes: Fc-silenced (L234A/L235A/P329G) IgG1, lambda; Alexa Fluor 647-labeled in single-step flow cytometry; Prototype of cluster C-97
B8: HW-101 chimeric rabbit-human IgG1 LA/LA/PG (antibody, V domains shown)
VH: QEQLVESGGRLVTPGTPLTLTCKASGFSLGKYDMSWVRQAPGKGLEWIGTIYAGSGSTWYASWAKGRFTISKTSTTVDLKMTSLTTEDTATYFCARDFLGVNSIWGPGTLVTISS
VL: B2 VL with R30S, G40D, F48H, S65N, D68N, Y97F, Q98H, Y99F
notes: Fc-silenced (L234A/L235A/P329G) IgG1, lambda; Alexa Fluor 647-labeled in single-step flow cytometry; Cluster C-97
B9: HW-113 chimeric rabbit-human IgG1 LA/LA/PG (antibody, V domains shown)
VH: QKQLVESGGGLVQPGGSLTLTCTVSGFSLNKYYMGWFRQAPGKGLEWIGVISRSGDTYYSSWAKGRFTISKASTTVDLRITSPTTEDTATYFCARDASSPGFHGDRLDLWGQGTLVTVSS
VL: B2 VL with R30S, F48Y, D68N, S93I, Q98L, Y99W
notes: Fc-silenced (L234A/L235A/P329G) IgG1, lambda; Alexa Fluor 647-labeled in single-step flow cytometry
B10: TH9-0022 (antibody, human IgG1, kappa, L234A L235A, V domains shown)
VH: B1 VH
VL: B1 VL
notes: also called TH9-022; negative control IgG1

Legend:
[1] = molecular target: T3, ICAM1, endogenous in H929 multiple myeloma cells (human, UniProt P05362 28-532); test: flow cytometry, H929 + NT Green siRNA; None 416
T3 construct: Native protein on H929 cells (flow cytometry, siRNA knockdown) and in H929 lysates (IP/MS); also called CD54
T3 sequence (P05362 28-532 limits assumed): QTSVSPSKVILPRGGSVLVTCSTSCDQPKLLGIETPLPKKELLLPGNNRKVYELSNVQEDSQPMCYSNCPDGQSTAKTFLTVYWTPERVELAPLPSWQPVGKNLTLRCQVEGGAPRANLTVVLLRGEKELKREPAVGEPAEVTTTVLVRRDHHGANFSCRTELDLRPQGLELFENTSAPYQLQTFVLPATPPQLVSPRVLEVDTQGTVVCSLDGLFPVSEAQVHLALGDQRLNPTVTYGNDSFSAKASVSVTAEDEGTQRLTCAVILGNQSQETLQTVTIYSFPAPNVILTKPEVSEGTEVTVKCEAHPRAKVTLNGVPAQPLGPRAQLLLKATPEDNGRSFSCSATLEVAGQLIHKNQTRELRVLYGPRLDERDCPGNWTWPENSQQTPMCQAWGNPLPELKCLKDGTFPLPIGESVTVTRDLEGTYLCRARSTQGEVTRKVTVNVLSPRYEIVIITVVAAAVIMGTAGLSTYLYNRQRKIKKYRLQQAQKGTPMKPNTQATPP

[2] = molecular target: T1, CADM1, endogenous in H929 multiple …; test: flow cytometry, H929 + NT Green siRNA; None 1.35
[3] = molecular target: T1, CADM1, endogenous in H929 multiple …; test: flow cytometry, H929 + vehicle; None 2.74
[4] = molecular target: T1, CADM1, endogenous in H929 multiple …; test: flow cytometry, H929 + vehicle; None 513
[5] = molecular target: T4, PTPRG, endogenous in H929 multiple myeloma cells (human, UniProt P23470 20-1445); test: flow cytometry, H929 + ICAM1 siRNA; None 1.06
T4 construct: Native protein on H929 cells (flow cytometry, siRNA knockdown) and in H929 lysates (IP/MS); also called phosphatase receptor type γ
T4 sequence (P23470 20-1445 limits assumed): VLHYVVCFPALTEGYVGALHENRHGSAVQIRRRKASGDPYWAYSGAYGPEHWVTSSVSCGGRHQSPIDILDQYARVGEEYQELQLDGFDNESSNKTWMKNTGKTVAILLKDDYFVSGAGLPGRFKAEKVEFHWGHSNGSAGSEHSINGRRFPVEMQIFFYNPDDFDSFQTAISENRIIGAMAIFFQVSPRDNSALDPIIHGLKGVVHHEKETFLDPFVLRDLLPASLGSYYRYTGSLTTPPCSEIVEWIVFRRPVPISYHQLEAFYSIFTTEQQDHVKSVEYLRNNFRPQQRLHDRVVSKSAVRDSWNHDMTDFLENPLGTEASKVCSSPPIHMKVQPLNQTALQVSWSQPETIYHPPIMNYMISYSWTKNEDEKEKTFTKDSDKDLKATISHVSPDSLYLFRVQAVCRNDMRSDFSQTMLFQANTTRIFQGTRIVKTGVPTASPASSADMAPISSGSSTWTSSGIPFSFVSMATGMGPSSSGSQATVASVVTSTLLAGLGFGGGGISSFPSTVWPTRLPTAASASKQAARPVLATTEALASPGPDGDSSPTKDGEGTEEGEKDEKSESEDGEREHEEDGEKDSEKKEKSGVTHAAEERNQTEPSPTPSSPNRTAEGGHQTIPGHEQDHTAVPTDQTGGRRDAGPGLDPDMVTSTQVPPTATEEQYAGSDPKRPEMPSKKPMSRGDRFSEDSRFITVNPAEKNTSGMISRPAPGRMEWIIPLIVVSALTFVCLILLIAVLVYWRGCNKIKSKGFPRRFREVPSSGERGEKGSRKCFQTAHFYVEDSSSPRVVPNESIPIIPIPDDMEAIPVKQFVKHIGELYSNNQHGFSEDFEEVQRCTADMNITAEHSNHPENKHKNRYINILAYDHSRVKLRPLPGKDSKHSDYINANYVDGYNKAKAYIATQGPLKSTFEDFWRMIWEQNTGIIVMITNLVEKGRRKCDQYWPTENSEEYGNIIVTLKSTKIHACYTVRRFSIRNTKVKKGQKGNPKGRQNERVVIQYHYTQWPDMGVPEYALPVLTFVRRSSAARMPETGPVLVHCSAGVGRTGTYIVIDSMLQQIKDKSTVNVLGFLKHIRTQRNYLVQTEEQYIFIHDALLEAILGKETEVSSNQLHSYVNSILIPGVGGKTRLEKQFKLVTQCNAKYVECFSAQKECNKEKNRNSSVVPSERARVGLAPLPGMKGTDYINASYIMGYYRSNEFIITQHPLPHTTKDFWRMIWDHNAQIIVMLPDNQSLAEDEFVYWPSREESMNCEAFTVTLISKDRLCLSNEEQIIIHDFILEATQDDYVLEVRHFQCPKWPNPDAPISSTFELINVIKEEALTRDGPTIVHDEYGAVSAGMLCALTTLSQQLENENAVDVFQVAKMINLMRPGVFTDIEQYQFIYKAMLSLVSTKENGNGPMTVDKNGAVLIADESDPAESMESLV

[6] = molecular target: T1, CADM1, endogenous in H929 multiple …; test: flow cytometry, H929 + PTPRG siRNA; None 490
[7] = molecular target: T1, CADM1, endogenous in H929 multiple …; test: flow cytometry, IgG1 on H929 cells
Description: (§1) Staining protocol. Cells were harvested (5×10⁴ cells per sample), washed once with phosphate-buffered saline (PBS) at RT, and a second time with ice-cold FACS buffer (PBS, 0.5% BSA, 2 mM EDTA, 0.1% NaN₃). Cells were stained in 50 μL of primary antibody for 30 min on ice, washed twice with 100 μL FACS buffer, stained with 50 μL of diluted secondary antibody, washed two more times in FACS, and then resuspended in 50 μL FACS buffer. Samples were acquired on an Accuri C6 Plus or a BD FACSCanto II flow cytometer (both from BD Biosciences). Data were analyzed using FlowJo version 10 software. Primary antibodies: Fab (10 μg/mL), IgG1 (0.1 to 50 μg/mL), or 25 μL polyclonal Fabs from periplasmic extracts. Polyclonal Fabs were produced by diluting bacterial stocks by a factor of 100 in autoinduction media and incubating overnight to induce expression as previously described. […] Viability stains: DAPI (Cell Signaling Technology) or SYTOX AADvanced Dead Cell Stain (Thermo Fisher Scientific). Labeling: The panel of chimeric rabbit/human IgG1s was labeled using the Alexa Fluor 647 Labeling Kit (Thermo Fisher Scientific, #A20173) to facilitate single-step staining. Competition: Unlabeled IgG1s were added at saturating concentrations of 60 μg/mL to block the target receptors, incubating on ice for 30 min, followed by the addition of an equal volume of the Alexa Fluor 647 labeled antibody at 2 μg/mL, and the mixture was incubated on ice for another 30 min.

[8] = molecular target: T1, CADM1, endogenous in H929 multiple …; test: flow cytometry, H929 + ICAM1 siRNA; None 455
[9] = molecular target: T2, CADM1 on RPMI-8226 cells; test: flow cytometry, IgG1 on RPMI-8226 cells
Description: as §1

[10] = molecular target: T3, ICAM1, endogenous in H929 multiple …; test: flow cytometry, IgG1 on H929 cells
Description: as §1

Cells stained (%) [2] [%]	Cells stained (%) [3] [%]	mAb binding (MFI) [4]	Cells stained (%) [5] [%]	antibody-bound positive cells (%) [7] [%]	antibody-bound positive cells (%) [9] [%]	other results	Binder
1.86	2.62	595	–	–	–	mAb binding (MFI) [1]: 483	B1
–	–	–	96.9	–	–	–	B2
–	–	–	97.4	–	–	–	B3
–	–	–	97.2	–	–	–	B4
–	–	–	98.2	–	–	–	B5
–	–	–	98.4	–	–	–	B6
98.1	98.4	9510	–	98.6	98.8	mAb binding (MFI) [6]: 7040; mAb binding (MFI) [8]: 9430	B7
94.3	94.3	5940	–	95.3	97.6	mAb binding (MFI) [6]: 5900; mAb binding (MFI) [8]: 6390	B8
–	–	–	–	–	–	mAb binding (MFI) [1]: 51900; antibody-bound positive cells (%) [10]: 95.8%	B9
–	–	–	–	2.7	3	antibody-bound positive cells (%) [10]: 2.7%; binding result [9]: no binding	B10
